{"source": "patent JP2018150260A", "about": "(dated 2018)", "binders": {"B1": {"name": "PA 11-9.4モノクローナル抗体 (antibody, V domains shown)", "VH": "AEFVKPGASVKLSCIASGFNIKDTYMYWVKQRPEQGLEWIGRIDPANGNTKYDPKFQGKATITTDTSSNTAYLQVSSLTSEDTAVYYCAYRYDYYFDYWGQGTTLTVSS", "VL": "not shown", "notes": "also called PA 11-9.4 抗体"}}, "molecular_target": "T1, myc3 タグ融合 PB1 サブユニット(1aa-81aa), expressed in 293T cells (influenza virus H1N1, UniProt P03431 1-81)", "T1 construct": "range 1-81", "T1 sequence (P03431 1-81)": "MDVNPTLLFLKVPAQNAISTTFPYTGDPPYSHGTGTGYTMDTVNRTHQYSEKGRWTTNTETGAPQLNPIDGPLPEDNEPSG", "assay": "Western blot of 293T lysate (denatured protein)", "data": [{"binder": "B1", "values": [{"measurement": "binding result", "result": "no binding"}]}]}
